Positions count from the first letter of the chain named.
T1: FcγRIIb (human, UniProt P31994 43-217, limits assumed)
T1 construct: also called FcgRIIb; FcγIIB
T1 sequence: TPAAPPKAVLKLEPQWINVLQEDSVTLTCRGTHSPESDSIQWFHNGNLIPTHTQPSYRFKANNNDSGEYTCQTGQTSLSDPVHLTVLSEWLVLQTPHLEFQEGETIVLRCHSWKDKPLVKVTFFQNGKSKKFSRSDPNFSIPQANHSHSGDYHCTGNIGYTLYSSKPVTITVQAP

T2: FcγRIIa type H (human, UniProt P12318 36-217)
T2 construct: also called FcγRIIaH; FcγRIIH
T2 sequence: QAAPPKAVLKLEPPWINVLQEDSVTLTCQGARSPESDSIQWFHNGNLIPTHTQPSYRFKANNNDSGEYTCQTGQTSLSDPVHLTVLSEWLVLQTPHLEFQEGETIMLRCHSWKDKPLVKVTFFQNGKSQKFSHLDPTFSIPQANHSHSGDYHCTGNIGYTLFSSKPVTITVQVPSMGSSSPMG

T3: FcγRIIa type R (human, UniProt P12318 36-217)
T3 construct: SPR analyte; also called FcγRIIaR; FcγRIIa(R)
T3 chain: T2 sequence with H133R

T4: FcγRIIa type H (human, UniProt P12318 36-217)
T4 construct: SPR analyte; also called FcγRIIaH
T4 sequence: T2 sequence

T5: FcγRIIb (human, UniProt P31994 43-217, limits assumed)
T5 construct: SPR analyte; also called FcγIIB; CD32
T5 sequence: T1 sequence

T6: FcγRIIa type H (human, UniProt P12318 36-217)
T6 construct: also called FcγRIIaH; FcγRIIa(H)
T6 sequence: T2 sequence

T7: FcγRIIb (human, UniProt P31994 43-217, limits assumed)
T7 construct: also called FcγIIB; CD32
T7 sequence: T1 sequence

T8: FcγRIIa type R (human, UniProt P12318 36-217)
T8 construct: also called FcγRIIaR; FcγRIIa(R)
T8 chain: T2 sequence with H133R

B1: IL6R-BP110/IL6R-L (antibody, human IgG1)
heavy: QVQLQESGPGLVKPSETLSLTCAVSGHSISHDHAWSWVRQPPGEGLEWIGFISYSGITNYNPSLQGRVTISRDNSKNTLYLQMNSLRAEDTAVYYCARSLARTTAMDYWGEGTLVTVSSASTKGPSVFPLAPSSKSTSGGTAALGCLVKDYFPEPVTVSWNSGALTSGVHTFPAVLQSSGLYSLSSVVTVPSSSLGTQTYICNVNHKPSNTKVDKKVEPKSCDKTHTCPPCPAPELLGGDSVFLFPPKPKDTLMISRTPEVTCVVVDVSNEDPEVKFNWYVDGVEVHNAKTKPREEQYNSTYRVVSVLTVLHQDWLNGKEYKCKVSNKALPAPIEKTISKAKGQPREPQVYTLPPSRDELTKNQVSLTCLVKGFYPSDIAVEWESNGQPENNYKTTPPVLDSDGSFFLYSKLTVDKSRWQQGNVFSCSVMHEALHNHYTQESLSLSP
light: DIQMTQSPSSLSASVGDRVTITCRASQDISSYLNWYQQKPGKAPKLLIYYTSRLHSGVPSRFSGSGSGTDFTFTISSLQPEDIATYYCQQGNTLPYTFGQGTKVEIK
notes: IgG1; Fc variant of IL6R-B3; copies: 2 + 2
B2: IL6R-BP152/IL6R-L (antibody, human IgG1)
heavy: B1 heavy with E235D, L236Y, G239D, N270H, Y298D, K328A, A332R
light: B1 light
B3: IL6R-BP178/IL6R-L (antibody, human IgG1)
heavy: B1 heavy with E235D, G239D, N270H, P273G, A332K
light: B1 light
B4: IL6R-BP180/IL6R-L (antibody, human IgG1)
heavy: B1 heavy with G239D, N270H, P273G, A332K
light: B1 light
B5: IL6R-BP211/IL6R-L (antibody, human IgG1)
heavy: B1 heavy with E235D, N270D, P273G, K328A, A332R
light: B1 light
notes: Anti-IL-6R human IgG1 variant; copies: 2 + 2
B6: IL6R-BP213/IL6R-L (antibody, human IgG1)
heavy: B1 heavy with E235D, N270D, P273G, A332R
light: B1 light
notes: as for B5

Legend:
FcγRIIb [1] = biological target: T1, FcγRIIb; test: SPR (Biacore), FcγR over captured antibody
FcγRIa [2] = biological target: T9, FcγRIa (human, UniProt P12314 16-292, limits assumed); test: SPR (Biacore), FcγR over captured antibody
T9 construct: also called FcgRIa; CD64
T9 sequence (P12314 16-292 limits assumed): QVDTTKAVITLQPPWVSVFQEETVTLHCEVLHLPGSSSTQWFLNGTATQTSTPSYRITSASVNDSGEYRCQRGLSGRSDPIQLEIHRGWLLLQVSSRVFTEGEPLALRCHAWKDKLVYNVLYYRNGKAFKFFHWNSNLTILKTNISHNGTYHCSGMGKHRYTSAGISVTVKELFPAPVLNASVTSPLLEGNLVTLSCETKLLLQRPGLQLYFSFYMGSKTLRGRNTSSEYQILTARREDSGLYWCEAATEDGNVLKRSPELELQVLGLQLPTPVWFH

FcγRIIa type H [3] = biological target: T2, FcγRIIa type H; test: SPR (Biacore), FcγR over captured antibody
FcγRIIIa type V [4] = biological target: T10, FcγRIIIa type V (human, UniProt P08637 17-208, limits assumed); test: SPR (Biacore), FcγR over captured antibody
T10 construct: also called FcγRIIIaV; FcgRIIIaV
T10 sequence (P08637 other isoform, or with tags, fused parts or gaps limits assumed): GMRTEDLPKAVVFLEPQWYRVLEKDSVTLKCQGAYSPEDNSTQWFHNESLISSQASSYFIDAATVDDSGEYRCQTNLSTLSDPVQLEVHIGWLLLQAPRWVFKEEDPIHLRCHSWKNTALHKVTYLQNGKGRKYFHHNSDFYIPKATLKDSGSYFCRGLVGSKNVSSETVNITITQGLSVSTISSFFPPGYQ

FcγRIIb [5] = biological target: T1, FcγRIIb; test: SPR (Biacore), KD of IL6R-B3/IL6R-L divided by KD of the variant
Source text: (§1) Furthermore, KD(IIaR)/KD(IIb) and KD(IIaH)/KD(IIb) in the table respectively represent the value obtained by dividing the KD value of each variant for FcγRIIaR by the KD value of each variant for FcγRIIb, and the value obtained by dividing the KD value of each variant for FcγRIIaH by the KD value of each variant for FcγRIIb. KD(IIb) of the parent polypeptide/KD(IIb) of the altered polypeptide refers to the value obtained by dividing the KD value of the parent polypeptide for FcγRIIb by the KD value of each variant for FcγRIIb.

FcγRIIa type R [6] = biological target: T3, FcγRIIa type R; test: SPR (Biacore), antibody captured, FcγR analyte
FcγRIa [7] = biological target: T11, FcγRIa (human, UniProt P12314 16-292, limits assumed); test: SPR (Biacore), antibody captured, FcγR analyte
T11 construct: SPR analyte; also called CD64
T11 sequence (P12314 16-292 limits assumed): as the sequence (P12314 16-292 limits assumed) above

FcγRIIa type H [8] = biological target: T4, FcγRIIa type H; test: SPR (Biacore), antibody captured, FcγR analyte
FcγRIIb [9] = biological target: T5, FcγRIIb; test: SPR (Biacore), antibody captured, FcγR analyte
FcγRIIa type R [10] = biological target: T3, FcγRIIa type R; test: ratio of SPR KDs; stronger receptor here FcγRIIaR; reference IL6R-B3/IL6R-L (FcγRIIaH)
Source text: as §1

FcγRIIb [11] = biological target: T5, FcγRIIb; test: ratio of SPR KDs; reference IL6R-B3/IL6R-L
FcγRIIb [12] = biological target: T5, FcγRIIb; test: ratio of SPR KDs: KD for FcγRIIaH over KD for FcγRIIb
Source text: (§2) Furthermore, KD(IIaR)/KD(IIb) and KD(IIaH)/KD(IIb) in the table respectively represent the value obtained by dividing the KD value of each variant for FcγRIIaR by the KD value of each variant for FcγRIIb, and the value obtained by dividing the KD value of each variant for FcγRIIaH by the KD value of each variant for FcγRIIb.

FcγRIIIa type V [13] = biological target: T12, FcγRIIIa type V (human, UniProt P08637 17-208, limits assumed); test: SPR (Biacore), antibody captured, FcγR analyte
T12 construct: SPR analyte; allotype V158 was used here; also called FcγRIIIaV; FcγRIIIa(V)
T12 sequence (P08637 other isoform, or with tags, fused parts or gaps limits assumed): as the sequence (P08637 other isoform, or with tags, fused parts or gaps limits assumed) above

FcγRIIb [14] = biological target: T5, FcγRIIb; test: ratio of SPR KDs: KD for FcγRIIaR over KD for FcγRIIb
Source text: as §2

FcγRIIIa type V [15] = biological target: T13, FcγRIIIa type V (human, UniProt P08637 17-208, limits assumed); test: SPR (Biacore), method of Example 14
T13 construct: also called FcγRIIIaV; FcγRIIIa(V)
T13 sequence (P08637 17-208 F176V limits assumed): as the sequence (P08637 other isoform, or with tags, fused parts or gaps limits assumed) above, with S179A counted along it
Source text: as §1

FcγRIa [16] = biological target: T14, FcγRIa (human, UniProt P12314 16-292, limits assumed); test: SPR (Biacore), method of Example 14
T14 construct: also called CD64
T14 sequence (P12314 16-292 limits assumed): as the sequence (P12314 16-292 limits assumed) above
Source text: as §1

FcγRIIa type H [17] = biological target: T6, FcγRIIa type H; test: SPR (Biacore), method of Example 14
Source text: as §1

FcγRIIb [18] = biological target: T7, FcγRIIb; test: SPR (Biacore), method of Example 14
Source text: as §1

FcγRIIa type R [19] = biological target: T8, FcγRIIa type R; test: SPR (Biacore), method of Example 14
Source text: as §1

FcγRIIb [20] = biological target: T7, FcγRIIb; test: ratio of SPR KD values, parent IL6R-B3/IL6R-L
Source text: as §1

FcγRIIb [21] = biological target: T7, FcγRIIb; test: SPR (Biacore); KD for FcγRIIaR divided by KD for FcγRIIb of the same antibody; column head in Table 52-1
Source text: as §1

FcγRIIb [22] = biological target: T7, FcγRIIb; test: SPR (Biacore); KD for FcγRIIaH divided by KD for FcγRIIb of the same antibody; column head in Table 52-1
Source text: as §1

Row | Binder | Kd (FcγRIIa type R [6]) | Kd (FcγRIa [7]) | Kd (FcγRIIa type H [8]) | Kd (FcγRIIb [9]) | KD of the stronger of FcγRIIaR/FcγRIIaH binding of the variant / that of the parent polypeptide (FcγRIIa type R [10]) | KD(IIb) of the parent polypeptide/KD(IIb) of altered polypeptide (FcγRIIb [11]) | Kd (FcγRIIIa type V [15]) | Kd (FcγRIa [16]) | Kd (FcγRIIa type H [17]) | Kd (FcγRIIb [18]) | Kd (FcγRIIa type R [19]) | KD(IIb) of the parent polypeptide/KD(IIb) of altered polypeptide (FcγRIIb [20]) | KD(IIaR)/KD(IIb) (FcγRIIb [21]) | KD(IIaH)/KD(IIb) (FcγRIIb [22]) | further results
1 | B1 |  |  |  |  |  |  |  |  |  |  |  |  |  |  | Kd (FcγRIIb [1]): 1500 nM; Kd (FcγRIa [2]): 7.3 nM; Kd (FcγRIIa type H [3]): 47 µM; Kd (FcγRIIIa type V [4]): 64 µM; KD(IIb) of the parent polypeptide/KD(IIb) of altered polypeptide (FcγRIIb [5]): 2.1 fold
2 | B2 | 810 nM | 73 nM | 5.6 µM | 41 nM | 1 | 75 |  |  |  |  |  |  |  |  | 
3 | B3 | 930 nM | 43 nM | 14 µM | 51 nM | 1.2 | 60.1 |  |  |  |  |  |  |  |  | 
4 | B4 | 1200 nM |  | 18 µM | 62 nM | 1.5 | 49.9 |  |  |  |  |  |  |  |  | KD(IIaH)/KD(IIb) (FcγRIIb [12]): 191; Kd (FcγRIIIa type V [13]): 70 µM; KD(IIaR)/KD(IIb) (FcγRIIb [14]): 18.6
5 | B5 |  |  |  |  |  |  | 73 µM | 4.2 nM | 27 µM | 220 nM | 4.1 µM | 13.8 fold | 18.5 | 120 | 
6 | B6 |  |  |  |  |  |  | 63 µM | 4.1 nM | 24 µM | 180 nM | 3.1 µM | 17.6 fold | 17.7 | 136 | 

From patent US20200199241A1 (Chugai, published 2020)
